Experimental data reported in patent US7847064B2, “Methods and compositions for regulating gene expression in plant cells” (Donald Danforth Plant Science Center, priority 2004, dated 2010).

Tested on: 5XG-35S:GUS
Test: MOF induced GUS activity in Arabidopsis plants with VGE, AGE or A5A5GE
Type: in vivo, Arabidopsis thaliana
Details: for activation of GUS expression, T2 generation plants: induced with MOF, plant lines #11, #11, #18; for activation of GUS expression, T1 generation plants: soil drench 1:10,000 dilution of MOF (61.3 μM) for 60 hours
Protocol: In this Example, Arabidopsis thaliana Col-0 plants were transformed with A. tumefaciens bacterium (strain GV3101) containing effector constructs comprising the CsVMV promoter operably linked to a nucleic acid sequence (SEQ ID NO:104) encoding the GE protein, plus (i) a nucleic acid sequence encoding the VP16 acidic activation domain of the herpes simplex virus, (ii) a sequence (SEQ ID NO:9) encoding the full RF2a acidic domain, or (iii) a sequence (2×SEQ ID NO:102) encoding a dimer of the A5 minimal acidic domain of RF2a (“A5A5”). The foregoing VP16 acidic domain-, RF2a acidic domain-, and A5A5 domain-encoding sequences were oriented to express such domains at the N-terminal of the GE protein. FIG. 28 refers to these constructs as VGE, AGE, and A5A5GE, respectively.
The foregoing effector constructs were prepared using standard DNA cloning and PCR procedures, and plasmids containing nucleic acid sequences encoding the VP16 acidic domain, the full length RF2a acidic domain (SEQ ID NO:6), the A5A5 domain (2×SEQ ID NO:101), and the GE domain (SEQ ID NO:103). Those of ordinary skill in the art will appreciate, however, that such effector sequences (and derivatives thereof) may also be constructed synthetically using standard procedures. The reporter construct described in Example 17 above, 5XG-35S:GUS, was used in this Example.
Next, plasmids containing the effector and reporter constructs described above were transferred by electroporation into A. tumefaciens strain GV3101. Agrobacterium isolates that contained the respective plasmids were used to transform A. thaliana Col-0 using a standard floral dip method (Clough and Bent, 1998). Seeds from the T1 generation were collected and germinated in Murashige and Skoog medium (Murashige and Skoog, 1962) containing a selective component (hygromycin B (30 μg/mL).
The seedlings that survived the selection were grown in soil in a growth chamber and allowed to self-fertilize. Next, T2 generation seeds were collected and germinated in Murashige and Skoog medium, which contained hygromycin B (30 μg/mL). The seedlings that survived the selection in a 3:1 segregation pattern were grown in soil in a growth chamber (under 12 hours of light/12 hours of dark per day, at 22° C., 50% humidity).
Analysis of T1 Generation Plants—In this Example, 22 T1 plants were analyzed for methoxyfenozide (MOF) induced gene expression. […] The supernatants were analyzed for GUS enzymatic activity as described in Example 16 above.
Analysis of T2 Generation Plants—A total of 16 different plants from a T2 generation plant line (having a segregation of the reporter/effector constructs of 3:1), wherein each plant contained a VGE, AGE, or A5A5GE effector construct, were induced with MOF and analyzed for GUS activity (as described above). […]

B1: A5A5GE: (2 × SEQ ID NO: 101 (A5)) + SEQ ID NO: 103 (GE) (protein, listed as Oryza sp.)
chain: EILSLPEDLDLCAAGGGDGPSLSDENDEEEILSLPEDLDLCAAGGGDGPSLSDENDEEKLLSSIEQACDICRLKKLKCSKEKPKCAKCLKNNWECRYSPKTKRSPLTRAHLTEVESRLERLEQLFLLIFPREDLDMILKMDSLQDIKALLTGLFVQDNVNKDAVTDRLASVETDMPLTLRQHRISATSSSEESSNKGQRQLTVSGGSRRISWPECVVPETQCAMKRKEKKAQKEKDKLPVSTTTVDDHMPPIMQCEPPPPEAARIHEVVPRFLSDKLLETNRQKNIPQLTANQQFLIARLIWYQDGYEQPSDEDLKRITQTWQQADDENEESDTPFRQITEMTILTVQLIVEFAKGLPGFAKISQPDQITLLKAFSSEVMMLRVARRYDAASDSVLFANNQAYTRDNYRKAGMAYVIEDLLHFCRCMYSMALDNIHYALLTAVVIFSDRPGLEQPQLVEEIQRYYLNTLRIYILNQLSGSARSSVIYGKILSILSELRTLGMQNSNMCISLKLKNRKLPPFLEEIWDVADMSHTQPPPILESPTNL
modifications: A combination of the Gal4 protein and Ecdysone receptor
activation of GUS expression, T2 generation plants: activated GUS expression (in the T2 generation plants) in the presence of the MOF inducer as strong as VP16 | activation of GUS expression, T1 generation plants: activated GUS expression in the presence of the MOF inducer as strong as VP16

B2: AGE: SEQ ID NO: 6 (A) + SEQ ID NO: 103 (GE) (protein)
chain: MGHRRAHSEILSLPEDLDLCAAGGGDGPSLSDENDEELFSMFLDVEKLNSTCGASSEAEAESSSAAAKLLSSIEQACDICRLKKLKCSKEKPKCAKCLKNNWECRYSPKTKRSPLTRAHLTEVESRLERLEQLFLLIFPREDLDMILKMDSLQDIKALLTGLFVQDNVNKDAVTDRLASVETDMPLTLRQHRISATSSSEESSNKGQRQLTVSGGSRRISWPECVVPETQCAMKRKEKKAQKEKDKLPVSTTTVDDHMPPIMQCEPPPPEAARIHEVVPRFLSDKLLETNRQKNIPQLTANQQFLIARLIWYQDGYEQPSDEDLKRITQTWQQADDENEESDTPFRQITEMTILTVQLIVEFAKGLPGFAKISQPDQITLLKAFSSEVMMLRVARRYDAASDSVLFANNQAYTRDNYRKAGMAYVIEDLLHFCRCMYSMALDNIHYALLTAVVIFSDRPGLEQPQLVEEIQRYYLNTLRIYILNQLSGSARSSVIYGKILSILSELRTLGMQNSNMCISLKLKNRKLPPFLEEIWDVADMSHTQPPPILESPTNL
modifications: This sequence was artificially derived and/or created by the inventors.; A combination of the Gal4 protein and Ecdysone receptor
activation of GUS expression, T2 generation plants: activated GUS expression (in the T2 generation plants) in the presence of the MOF inducer as strong as VP16 | activation of GUS expression, T1 generation plants: activated GUS expression in the presence of the MOF inducer as strong as VP16
